Laboratory results reported in patent US20230295308A1, “ANTAGONISTIC BIPARATOPIC ANTIBODIES THAT SPECIFICALLY BIND FIBROBLAST GROWTH FACTOR RECEPTOR 2 AND METHODS OF USING SAME” (The Broad Institute, Inc., priority 2020, published 2023).
“Also recorded” adds a separate entry of the source.

Tests used:
Format in all cases: cell-based
[1] = test system: BaF3 cells expressing wild-type FGFR2IIIb; assay: ligand-induced (FGF10) growth of BaF3 cells expressing FGFR2IIIb (FIG. 8)
Protocol: FIG. 8 is a schematic (described at FIG. 7A) and a graph showing the growth of BaF3 cells expressing FGFR2IIIb when treated with FGF10. Anti-FGFR2 antibodies blocked ligand-dependent stimulation of BaF3 cells expressing wild-type FGFR2b. FGFR2b is an isoform of FGFR2 that is predominantly expressed in cholangiocarcinoma.
Antibodies A-F were tested to determine whether they could inhibit the ligand-induced growth of BaF3 cells expressing FGFR2IIIb. Antibodies C, D, and E, which bind FGFR2 Ig-2 and Ig-3, were effective in blocking ligand-induced growth of BaF3 cells expressing wild-type FGFR2IIIb (FIG. 8). The effects of antibodies A-F were then tested on BaF3 cells expressing FGFR2-PHDGH fusions. […] Antibody F inhibited the FGFR2-PHDGH activating fusion in BaF3 cells (FIG. 9).

[2] = test system: FGFR2-PHDGH fusion expressing BaF3 cells; assay: ligand stimulated (FGF10) growth of FGFR2-PHGDH fusion expressing BaF3 cells (FIG. 10); details: FGF10 present
Protocol: FIG. 10 is a graph showing that antibodies C, D, E and F have activity against ligand stimulated growth of FGFR2-PHDGH fusion expressing BaF3 cells.
The growth of BaF3 cells expressing an FGFR2-PHDGH fusion was assayed in the presence of FGF ligand, FGF10. Antibodies C, D, E and F inhibited ligand stimulated growth of FGFR2-PHDGH fusion expressing BaF3 cells (FIG. 10). Based on the results reported herein above, antagonistic biparatopic antibodies are made using the FGFR2 antibody combinations shown in FIG. 11A. These combinations result in increased growth inhibition effects in oncogenic or cancer cells (e.g., transformed BaF3 cells) that overexpressed […]. Thus, antibodies that bind to epitopes have increased inhibitory and killing effects against cancer cells. Designs for antagonistic biparatopic antibodies are shown at FIGS. 11B and 11C. Advantageously, including complementary mutations in VH-VL and CH1-CL on one-half of the biparatopic antibody results in preferential heterodimeric pairing between two different chains rather than chains from the other half of the same antibody. Alternatively, a linker method is used to create scFab, scFv, or DuoBodies. In this method two antibody chains are each generated in different cells and mixed in vitro. Such methods are known in the art and described, for example, by K. Ding et al, March 2017, Appl. Microbiol. […]

[3] = test system: cells stably overexpressing FGFR2 (FGFR2IIIb); assay: growth of cells stably overexpressing FGFR2 (FGFR2IIIb) (FIG. 16F left)
Text: FIG. 16A-16F provide schematic illustrations, blots and graphs related to the development of a NANOBIT® assay to measure FGFR2 dimerization. Such an assay is used to screen biparatopic screening for their ability to disrupt FGFR2 dimerization. […] The protein interactions bring the subunits into close proximity to form a functional enzyme that generates a bright, luminescent signal. (FIG. 16B). […] FIG. 16E presents a graph of the results of the NANOBIT® assay using NANOBIT® constructs with or without FGF10 ligand. […] As shown in the graph on the left side of FIG. 16F, certain of the antibodies A-F inhibited the growth of BaF3 cells stably overexpressing FGFR2 (FGFR2IIIb). Antibody D was used in the NANOBIT® assay (graph on the right of FIG. 16F). In the rightmost graph in FIG. 16F, the fold luminescence resulting from FGFR2 WT (wild type) in the assay is represented by the left bar in each set of three bars; the fold luminescence resulting from FGFR2+FGF10 ligand in the assay is represented by the middle bar in each set of three bars; and the fold luminescence resulting from +/−FGF10 ligand difference in the assay is represented by the right bar in each set of three bars shown in FIG. 16F.
Different expression constructs (e.g., up to eight) were made encoding LgBiT and SmBiT fused to the N and C termini of protein:protein pairs. […]

B1: 2B 1.3.12 (antibody, V domains shown)
VH: EVQLVESGGGLVQPGGSLRLSCAASGFPFTSTGISWVRQAPGKGLEWVGRTHLGDGSTNYADSVKGRFTISADTSKNTAYLQMNSLRAEDTAVYYCARTYGIYDTYDMYTEYVMDYWGQGTLVTVSS
VL: DIQMTQSPSSLSASVGDRVTITCRASQDVDTSLAWYKQKPGKAPKLLIYSASFLYSGVPSRFSGSGSGTDFTLTISSLQPEDFATYYCQQSTGHPQTFGQGTKVEIK
notes: the duobody scheme implies IgG1 with K409R or F405L; also called Antibody D; GE
blocking ligand-induced growth of BaF3 cells expressing wild-type FGFR2IIIb [1]: effective | inhibition of ligand stimulated growth of FGFR2-PHGDH fusion expressing BaF3 cells [2]: have activity; also recorded: inhibited | growth inhibition of cells stably overexpressing FGFR2 (FGFR2IIIb) [3]: most pronounced effect
